B1: Cons scaffold, 20-mer RNA (mixed)
DNA 1: AGGATACTTAGTGCTATAATGAGCGGATCGCATGTTCACACAGGAAACAGCTGATTGCCC
DNA 2: GGGCAATCAGCTGTTTCCTGTGTGAACATGCGATCCGCTCATTATAGCACTAAGTATCCT
RNA: AUCACGAUAAAUGAGCGGAU
B2: Cons_up scaffold, 20-mer RNA (mixed)
DNA 1: CAGTGAATTCAGGATACTTAGTGCTATAATGAGCGGATCGCATGTTCACACAGGAAACAGCTGATTGCCC
DNA 2: GGGCAATCAGCTGTTTCCTGTGTGAACATGCGATCCGCTCATTATAGCACTAAGTATCCTGAATTCACTG
RNA: AUCACGAUAAAUGAGCGGAU

Assays:
[1] = biological target: T1, core RNA polymerase (wild type);sigma70 (Escherichia coli;Escherichia coli, UniProt P0A7Z4;P0A8V2;P0A8T7;P00579 1-329;1-1342;1-1407;1-613, |); test: KMnO4 footprinting
T1 sequence (P0A7Z4 whole entry, chain 1 of 3): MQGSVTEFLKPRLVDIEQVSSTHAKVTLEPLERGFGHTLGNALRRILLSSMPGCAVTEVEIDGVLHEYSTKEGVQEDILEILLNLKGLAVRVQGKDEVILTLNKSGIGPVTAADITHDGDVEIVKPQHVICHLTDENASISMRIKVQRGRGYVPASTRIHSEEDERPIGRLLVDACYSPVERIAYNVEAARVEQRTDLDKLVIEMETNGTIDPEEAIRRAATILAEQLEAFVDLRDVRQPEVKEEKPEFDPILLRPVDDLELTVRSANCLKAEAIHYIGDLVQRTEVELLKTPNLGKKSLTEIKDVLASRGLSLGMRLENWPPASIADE
T1 sequence (P0A8V2 whole entry, chain 2 of 3): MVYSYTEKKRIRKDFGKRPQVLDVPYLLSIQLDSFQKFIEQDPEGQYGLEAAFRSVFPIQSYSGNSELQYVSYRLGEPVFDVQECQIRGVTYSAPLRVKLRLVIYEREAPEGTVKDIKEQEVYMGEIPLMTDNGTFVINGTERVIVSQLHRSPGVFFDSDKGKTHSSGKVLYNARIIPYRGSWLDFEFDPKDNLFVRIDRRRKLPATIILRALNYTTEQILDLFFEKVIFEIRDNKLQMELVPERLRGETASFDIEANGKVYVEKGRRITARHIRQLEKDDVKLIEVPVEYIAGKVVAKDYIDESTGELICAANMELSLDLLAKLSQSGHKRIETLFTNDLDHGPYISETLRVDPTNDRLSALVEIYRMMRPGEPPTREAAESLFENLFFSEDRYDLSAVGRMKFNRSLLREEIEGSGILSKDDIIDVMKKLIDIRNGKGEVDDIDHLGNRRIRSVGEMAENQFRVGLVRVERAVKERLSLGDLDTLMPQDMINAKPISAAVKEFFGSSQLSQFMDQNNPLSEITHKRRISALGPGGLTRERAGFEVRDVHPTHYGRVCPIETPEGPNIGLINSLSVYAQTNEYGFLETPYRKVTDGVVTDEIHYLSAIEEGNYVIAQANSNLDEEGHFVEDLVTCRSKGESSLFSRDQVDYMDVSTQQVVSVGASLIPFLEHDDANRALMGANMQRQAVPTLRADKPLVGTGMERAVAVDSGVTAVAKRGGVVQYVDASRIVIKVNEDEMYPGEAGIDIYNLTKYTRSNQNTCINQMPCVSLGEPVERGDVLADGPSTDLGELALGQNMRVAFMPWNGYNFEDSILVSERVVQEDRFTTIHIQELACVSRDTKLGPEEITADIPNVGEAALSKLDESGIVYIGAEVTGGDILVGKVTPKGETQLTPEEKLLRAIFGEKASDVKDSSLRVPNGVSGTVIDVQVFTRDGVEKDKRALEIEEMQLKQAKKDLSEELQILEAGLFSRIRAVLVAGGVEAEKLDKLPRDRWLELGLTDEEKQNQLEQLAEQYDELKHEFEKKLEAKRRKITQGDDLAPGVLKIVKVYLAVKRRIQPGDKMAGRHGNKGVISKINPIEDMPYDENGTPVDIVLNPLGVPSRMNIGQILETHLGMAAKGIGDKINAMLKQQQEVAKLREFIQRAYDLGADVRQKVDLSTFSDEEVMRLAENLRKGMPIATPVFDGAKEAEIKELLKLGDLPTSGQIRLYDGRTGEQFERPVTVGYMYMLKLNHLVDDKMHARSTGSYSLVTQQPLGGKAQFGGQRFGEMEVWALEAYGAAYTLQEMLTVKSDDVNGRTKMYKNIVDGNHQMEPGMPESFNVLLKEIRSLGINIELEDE
T1 sequence (P00579 whole entry, chain 4 of 3): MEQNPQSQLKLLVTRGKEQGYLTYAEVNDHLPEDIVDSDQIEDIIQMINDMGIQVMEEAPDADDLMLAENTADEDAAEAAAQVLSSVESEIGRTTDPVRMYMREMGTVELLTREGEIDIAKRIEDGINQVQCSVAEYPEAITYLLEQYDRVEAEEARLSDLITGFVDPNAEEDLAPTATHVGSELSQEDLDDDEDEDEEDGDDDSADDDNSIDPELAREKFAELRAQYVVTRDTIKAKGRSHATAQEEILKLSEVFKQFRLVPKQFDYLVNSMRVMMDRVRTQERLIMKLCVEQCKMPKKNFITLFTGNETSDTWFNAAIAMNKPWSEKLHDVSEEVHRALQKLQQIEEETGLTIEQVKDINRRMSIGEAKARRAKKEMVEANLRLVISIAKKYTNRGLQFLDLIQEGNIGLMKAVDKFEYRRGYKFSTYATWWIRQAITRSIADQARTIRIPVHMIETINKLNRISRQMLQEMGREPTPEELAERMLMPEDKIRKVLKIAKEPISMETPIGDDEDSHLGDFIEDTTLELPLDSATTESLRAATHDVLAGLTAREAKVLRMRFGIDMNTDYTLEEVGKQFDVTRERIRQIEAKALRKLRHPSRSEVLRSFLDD

[2] = biological target: T2, core RNA polymerase (wild type) (Escherichia coli, UniProt P0A7Z4;P0A8V2;P0A8T7 1-329;1-1342;1-1407); test: KMnO4 footprinting
T2 sequence (P0A7Z4 whole entry, chain 1 of 2): as the sequence (P0A7Z4 whole entry, chain 1 of 3) above
T2 sequence (P0A8V2 whole entry, chain 2 of 2): as the sequence (P0A8V2 whole entry, chain 2 of 3) above

[3] = biological target: T1, core RNA polymerase (wild type);sigma70; test: ExoIII footprinting
[4] = biological target: T2, core RNA polymerase (wild type); test: ExoIII footprinting
[5] = biological target: core RNA polymerase (wild type);sigma70 fragment 1-448 (Escherichia coli;Escherichia coli, UniProt P0A7Z4;P0A8V2;P0A8T7;P00579 1-329;1-1342;1-1407;1-448, |); test: ExoIII footprinting

Binder | binding result [1] | binding result [2] | binding result [3] | binding result [4] | binding result [5]
B1 | binds | binds | – | – | –
B2 | – | – | binds | binds | binds
